Where no end group is shown, it is not given here. The star is where a group is joined. C16 diacid = O=C(O)CCCCCCCCCCCCCCC(=O)*
B1: AT360 (peptide)
peptide: EGTFISDYSIAMDKIK(C16 diacid)QQDFVNWLLAQKGKK-OH
modifications: N-terminus assumed
SMILES: CC[C@H](C)[C@H](NC(=O)[C@H](CO)NC(=O)[C@H](Cc1ccc(O)cc1)NC(=O)[C@H](CC(=O)O)NC(=O)[C@H](CO)NC(=O)[C@@H](NC(=O)[C@H](Cc1ccccc1)NC(=O)[C@@H](NC(=O)CNC(=O)[C@@H](N)CCC(=O)O)[C@@H](C)O)[C@@H](C)CC)C(=O)N[C@@H](C)C(=O)N[C@@H](CCSC)C(=O)N[C@@H](CC(=O)O)C(=O)N[C@@H](CCCCN)C(=O)N[C@H](C(=O)N[C@@H](CCCCNC(=O)CCCCCCCCCCCCCCC(=O)O)C(=O)N[C@@H](CCC(N)=O)C(=O)N[C@@H](CCC(N)=O)C(=O)N[C@@H](CC(=O)O)C(=O)N[C@@H](Cc1ccccc1)C(=O)N[C@H](C(=O)N[C@@H](CC(N)=O)C(=O)N[C@@H](Cc1c[nH]c2ccccc12)C(=O)N[C@@H](CC(C)C)C(=O)N[C@@H](CC(C)C)C(=O)N[C@@H](C)C(=O)N[C@@H](CCC(N)=O)C(=O)N[C@@H](CCCCN)C(=O)NCC(=O)N[C@@H](CCCCN)C(=O)N[C@@H](CCCCN)C(=O)O)C(C)C)[C@@H](C)CC
B2: AT447 (peptide)
peptide: EGTFISDYSIAMDKIK(C16 diacid)QQDFVNWLLAQKG-OH
modifications: N-terminus assumed
SMILES: CC[C@H](C)[C@H](NC(=O)[C@H](CO)NC(=O)[C@H](Cc1ccc(O)cc1)NC(=O)[C@H](CC(=O)O)NC(=O)[C@H](CO)NC(=O)[C@@H](NC(=O)[C@H](Cc1ccccc1)NC(=O)[C@@H](NC(=O)CNC(=O)[C@@H](N)CCC(=O)O)[C@@H](C)O)[C@@H](C)CC)C(=O)N[C@@H](C)C(=O)N[C@@H](CCSC)C(=O)N[C@@H](CC(=O)O)C(=O)N[C@@H](CCCCN)C(=O)N[C@H](C(=O)N[C@@H](CCCCNC(=O)CCCCCCCCCCCCCCC(=O)O)C(=O)N[C@@H](CCC(N)=O)C(=O)N[C@@H](CCC(N)=O)C(=O)N[C@@H](CC(=O)O)C(=O)N[C@@H](Cc1ccccc1)C(=O)N[C@H](C(=O)N[C@@H](CC(N)=O)C(=O)N[C@@H](Cc1c[nH]c2ccccc12)C(=O)N[C@@H](CC(C)C)C(=O)N[C@@H](CC(C)C)C(=O)N[C@@H](C)C(=O)N[C@@H](CCC(N)=O)C(=O)N[C@@H](CCCCN)C(=O)NCC(=O)O)C(C)C)[C@@H](C)CC
B3: AT474 (peptide)
peptide: EGTFISDYSIAMDKIK(C16 diacid)QQDFVNWLLAQKGP-OH
modifications: N-terminus assumed
SMILES: CC[C@H](C)[C@H](NC(=O)[C@H](CO)NC(=O)[C@H](Cc1ccc(O)cc1)NC(=O)[C@H](CC(=O)O)NC(=O)[C@H](CO)NC(=O)[C@@H](NC(=O)[C@H](Cc1ccccc1)NC(=O)[C@@H](NC(=O)CNC(=O)[C@@H](N)CCC(=O)O)[C@@H](C)O)[C@@H](C)CC)C(=O)N[C@@H](C)C(=O)N[C@@H](CCSC)C(=O)N[C@@H](CC(=O)O)C(=O)N[C@@H](CCCCN)C(=O)N[C@H](C(=O)N[C@@H](CCCCNC(=O)CCCCCCCCCCCCCCC(=O)O)C(=O)N[C@@H](CCC(N)=O)C(=O)N[C@@H](CCC(N)=O)C(=O)N[C@@H](CC(=O)O)C(=O)N[C@@H](Cc1ccccc1)C(=O)N[C@H](C(=O)N[C@@H](CC(N)=O)C(=O)N[C@@H](Cc1c[nH]c2ccccc12)C(=O)N[C@@H](CC(C)C)C(=O)N[C@@H](CC(C)C)C(=O)N[C@@H](C)C(=O)N[C@@H](CCC(N)=O)C(=O)N[C@@H](CCCCN)C(=O)NCC(=O)N1CCC[C@H]1C(=O)O)C(C)C)[C@@H](C)CC
B4: AT472 (peptide)
peptide: EGTFISDYSIAMDKIK(C16 diacid)QQDFVNWLLAQKGPSS-OH
modifications: N-terminus assumed
SMILES: CC[C@H](C)[C@H](NC(=O)[C@H](CO)NC(=O)[C@H](Cc1ccc(O)cc1)NC(=O)[C@H](CC(=O)O)NC(=O)[C@H](CO)NC(=O)[C@@H](NC(=O)[C@H](Cc1ccccc1)NC(=O)[C@@H](NC(=O)CNC(=O)[C@@H](N)CCC(=O)O)[C@@H](C)O)[C@@H](C)CC)C(=O)N[C@@H](C)C(=O)N[C@@H](CCSC)C(=O)N[C@@H](CC(=O)O)C(=O)N[C@@H](CCCCN)C(=O)N[C@H](C(=O)N[C@@H](CCCCNC(=O)CCCCCCCCCCCCCCC(=O)O)C(=O)N[C@@H](CCC(N)=O)C(=O)N[C@@H](CCC(N)=O)C(=O)N[C@@H](CC(=O)O)C(=O)N[C@@H](Cc1ccccc1)C(=O)N[C@H](C(=O)N[C@@H](CC(N)=O)C(=O)N[C@@H](Cc1c[nH]c2ccccc12)C(=O)N[C@@H](CC(C)C)C(=O)N[C@@H](CC(C)C)C(=O)N[C@@H](C)C(=O)N[C@@H](CCC(N)=O)C(=O)N[C@@H](CCCCN)C(=O)NCC(=O)N1CCC[C@H]1C(=O)N[C@@H](CO)C(=O)N[C@@H](CO)C(=O)O)C(C)C)[C@@H](C)CC
B5: AT473 (peptide)
peptide: EGTFISDYSIAMDKIK(C16 diacid)QQDFVNWLLAQKGPS-OH
modifications: N-terminus assumed
SMILES: CC[C@H](C)[C@H](NC(=O)[C@H](CO)NC(=O)[C@H](Cc1ccc(O)cc1)NC(=O)[C@H](CC(=O)O)NC(=O)[C@H](CO)NC(=O)[C@@H](NC(=O)[C@H](Cc1ccccc1)NC(=O)[C@@H](NC(=O)CNC(=O)[C@@H](N)CCC(=O)O)[C@@H](C)O)[C@@H](C)CC)C(=O)N[C@@H](C)C(=O)N[C@@H](CCSC)C(=O)N[C@@H](CC(=O)O)C(=O)N[C@@H](CCCCN)C(=O)N[C@H](C(=O)N[C@@H](CCCCNC(=O)CCCCCCCCCCCCCCC(=O)O)C(=O)N[C@@H](CCC(N)=O)C(=O)N[C@@H](CCC(N)=O)C(=O)N[C@@H](CC(=O)O)C(=O)N[C@@H](Cc1ccccc1)C(=O)N[C@H](C(=O)N[C@@H](CC(N)=O)C(=O)N[C@@H](Cc1c[nH]c2ccccc12)C(=O)N[C@@H](CC(C)C)C(=O)N[C@@H](CC(C)C)C(=O)N[C@@H](C)C(=O)N[C@@H](CCC(N)=O)C(=O)N[C@@H](CCCCN)C(=O)NCC(=O)N1CCC[C@H]1C(=O)N[C@@H](CO)C(=O)O)C(C)C)[C@@H](C)CC
B6: AT448 (peptide)
peptide: EGTFISDYSIAMDKIK(C16 diacid)QQDFVNWLLAQKGK-OH
modifications: N-terminus assumed
SMILES: CC[C@H](C)[C@H](NC(=O)[C@H](CO)NC(=O)[C@H](Cc1ccc(O)cc1)NC(=O)[C@H](CC(=O)O)NC(=O)[C@H](CO)NC(=O)[C@@H](NC(=O)[C@H](Cc1ccccc1)NC(=O)[C@@H](NC(=O)CNC(=O)[C@@H](N)CCC(=O)O)[C@@H](C)O)[C@@H](C)CC)C(=O)N[C@@H](C)C(=O)N[C@@H](CCSC)C(=O)N[C@@H](CC(=O)O)C(=O)N[C@@H](CCCCN)C(=O)N[C@H](C(=O)N[C@@H](CCCCNC(=O)CCCCCCCCCCCCCCC(=O)O)C(=O)N[C@@H](CCC(N)=O)C(=O)N[C@@H](CCC(N)=O)C(=O)N[C@@H](CC(=O)O)C(=O)N[C@@H](Cc1ccccc1)C(=O)N[C@H](C(=O)N[C@@H](CC(N)=O)C(=O)N[C@@H](Cc1c[nH]c2ccccc12)C(=O)N[C@@H](CC(C)C)C(=O)N[C@@H](CC(C)C)C(=O)N[C@@H](C)C(=O)N[C@@H](CCC(N)=O)C(=O)N[C@@H](CCCCN)C(=O)NCC(=O)N[C@@H](CCCCN)C(=O)O)C(C)C)[C@@H](C)CC

Biological target: T1, human GIP receptor (human, UniProt P48546 22-466)
T1 sequence (looked up): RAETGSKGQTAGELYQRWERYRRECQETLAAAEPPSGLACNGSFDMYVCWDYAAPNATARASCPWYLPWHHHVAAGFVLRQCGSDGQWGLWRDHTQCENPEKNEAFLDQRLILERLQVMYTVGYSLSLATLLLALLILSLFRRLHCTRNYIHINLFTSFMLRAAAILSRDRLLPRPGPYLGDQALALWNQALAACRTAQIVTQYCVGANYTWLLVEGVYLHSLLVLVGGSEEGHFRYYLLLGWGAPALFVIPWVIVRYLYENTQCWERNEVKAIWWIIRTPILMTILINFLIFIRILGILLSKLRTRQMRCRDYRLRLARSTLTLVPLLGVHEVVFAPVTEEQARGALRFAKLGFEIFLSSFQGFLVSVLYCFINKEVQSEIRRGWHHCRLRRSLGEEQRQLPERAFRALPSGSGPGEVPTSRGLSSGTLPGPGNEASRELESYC
Assay: cell-based or functional assay

Binder | cAMP agonism Emax | cAMP antagonism | cAMP antagonism % inhib | cAMP antagonism log
B1 | 20 | 86 nM | 85% | -7.1 log M
B2 | 4.2 | 9 nM | 82% | -8.1 log M
B3 | 5.9 | 4 nM | 100% | -8.4 log M
B4 | – | 15 nM | 100% | -7.8 log M
B5 | – | 26 nM | 100% | -7.6 log M
B6 | 6.2 | 6 nM | 77% | -8.2 log M

Biological target: T1, human GIP receptor
Assay: cell-based or functional assay
Remark: another data set of the same source

Binder | cAMP agonism % Emax | cAMP antagonism | cAMP antagonism % inhib | cAMP antagonism pIC50
B1 | 0% | 12.6 nM | 96% | 7.9
B2 | 0% | 11.9 nM | 93% | 7.9
B3 | 0% | 13.6 nM | 86% | 7.9
B4 | 0% | 7.94 nM | 90% | 8.1
B5 | 0% | 2.93 nM | 88% | 8.5
B6 | 0% | 1.36 nM | 96% | 8.9
